Data: patent EP1644414B1 (Crucell Holland B.V., dated 2015)

Key:
[1] = target: S318-510 fragment (amino acids 318-510 of the S protein of SARS-CoV strain Frankfurt 1) (SARS-CoV strain Frankfurt 1, UniProt P59594 318-510); experiment: IgG ELISA on captured S318-510
[2] = target: full length S protein of SARS-CoV expressed on HEK293T cells (SARS-CoV strain Frankfurt 1, UniProt P59594 14-1255); experiment: flow cytometry, IgG 10 µg/ml
[3] = target: S565 fragment (amino acids 1-565 of the S protein of SARS-CoV), myc-tagged (SARS-CoV strain Frankfurt 1, UniProt P59594 14-565); experiment: IgG ELISA on captured S565
[4] = target: spike protein of SARS-CoV as present in the SARS-CoV preparation (SARS-CoV strain Frankfurt 1, UniProt P59594 14-1255); experiment: sandwich ELISA, detection with anti-spike rabbit sera IMG-542 and IMG-557

B1: 03-006 (antibody, V domains shown)
VH: EVQLVESGGGLVQPGGSLRLSCAASGFTFSGYPMHWVRQAPGKGLEWVAVISYDGSNKYYADSVKGRFTISRDNSKNTLYLQMNSLRAEDTAVYYCAKDGSPRTPSFDYWGQGTLVTVSS
VL: DIQMTQSPHSLSASVGDRVTITCRASQGISNYLAWYQQKPGKVPKLLIYAASTLQSGVPSRFSGSGSGTDFTLTISSLQPEDVGVYYCQQRFRTPVTFGQGTKLEIKR
- binding result [1]: binds
- binding result [2]: binds
- binding result [3]: binds

B2: 03-013 (antibody, V domains shown)
VH: EVQLVESGGGLVQPGGSLRLSCAASGFTFSDHYMDWVRQAPGKGLEWVGRTRNKANSYTTEYAASVKGRFTISRDDSKNSLYLQMNSLKTEDTAVYYCAKGLTPLYFDYWGQGTLVTVSS
VL: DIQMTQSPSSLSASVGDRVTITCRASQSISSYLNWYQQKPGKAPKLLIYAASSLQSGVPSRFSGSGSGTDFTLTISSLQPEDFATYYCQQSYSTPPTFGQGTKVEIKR
- binding result [1]: binds
- binding result [2]: binds
- binding result [3]: binds
- binding result [4]: binds

B3: 03-015 (antibody, V domains shown)
VH: EVQLVESGGGVVRPGGSLRLSCAASGFTFDDYGMSWVRQAPGKGLEWVSGINWNGGSTGYADSVKGRFTISRDNAKNSLYLQMNSLRAEDTAVYYCARGLSLRPWGQGTLVTVSS
VL: SSELTQDPAESVALGQTVRITCQGDSLRSYYASWYQQKPGQAPVLVIYGKNNRPSGIPDRFSGSSSGNTASLTITGAQAEDEADYYCNSRDSSGNHVVFGGGTKLTVLG
- binding result [1]: no binding
- binding result [2]: binds
- binding result [3]: no binding

B4: 03-014 (antibody, V domains shown)
VH: EVQLVESGGGLVQPGGSLRLSCAASGFTFSDHYMDWVRQAPGKGLEWVGRTRNKANSYTTEYAASVKGRFTISRDDSKNSLYLQMNSLKTEDTAVYYCARGISPFYFDYWGQGTLVTVSS
VL: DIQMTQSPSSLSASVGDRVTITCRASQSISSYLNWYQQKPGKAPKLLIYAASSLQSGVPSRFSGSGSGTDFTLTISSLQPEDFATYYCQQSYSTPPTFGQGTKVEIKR
- binding result [1]: binds
- binding result [3]: binds

B5: 03-001 (antibody, V domains shown)
VH: EVQLVESGGGLVKPGGSLRLSCAASGFTFSGYSMNWVRQAPGKGLEWVSSISGGSTYYADSRKGRFTISRDNSKNTLYLQMNNLRAEDTAVYYCARHRFRHVFDYWGQGTLVTVSS
VL: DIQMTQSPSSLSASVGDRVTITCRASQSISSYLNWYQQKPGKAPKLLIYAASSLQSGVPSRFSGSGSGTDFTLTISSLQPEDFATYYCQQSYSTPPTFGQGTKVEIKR
- binding result [1]: no binding

B6: 03-002 (antibody, V domains shown)
VH: EVQLVESGGGLVKPGGSLRLSCAASGFTFSGYSMSWVRQAPGKGLEWVGRTRNKANSYTTEYAASVKGRFTISRDDSKNSLYLQMNSLKTEDTAVYYCARYYSRSLKAFDYWGQGTLVTVSS
VL: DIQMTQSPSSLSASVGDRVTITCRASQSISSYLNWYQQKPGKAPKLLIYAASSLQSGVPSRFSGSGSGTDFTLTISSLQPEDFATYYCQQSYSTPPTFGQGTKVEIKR
- binding result [1]: no binding

B7: 03-009 (antibody, V domains shown)
VH: EVQLVESGGGVVQPGRSLRLSCAASGFTFSDYPMNWVRQAPGKGLEWVSSISGSGGSTYYADSVKGRFTISRDNSKNTLYLQMNSLRAEDTAVYYCAKGLFMVTTYAFDYWGQGTLVTVSS
VL: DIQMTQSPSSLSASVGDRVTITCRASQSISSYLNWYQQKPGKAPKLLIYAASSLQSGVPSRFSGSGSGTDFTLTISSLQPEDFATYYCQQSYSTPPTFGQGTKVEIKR
- binding result [1]: no binding
